What was measured:
[1] = target: Cynomolgus monkey glycophorin A on Cynomolgus monkey red blood cells (Cynomolgus monkey); assay: FACS, RBC Cy01
[2] = target: Rhesus monkey glycophorin A on Rhesus monkey red blood cells (Rhesus monkey); assay: FACS, RBC Rh02
[3] = target: Rhesus monkey glycophorin A on Rhesus monkey red blood cells (Rhesus monkey); assay: FACS, RBC Rh03
[4] = target: Cynomolgus monkey glycophorin A on Cynomolgus monkey red blood cells (Cynomolgus monkey); assay: FACS, RBC Cy02
[5] = target: Rhesus monkey glycophorin A on Rhesus monkey red blood cells (Rhesus monkey); assay: FACS, RBC Rh01
[6] = target: endogenous Cynomolgus monkey FVIII in whole blood (Cynomolgus monkey); assay: cell-based or functional assay
Sequence of endogenous Cynomolgus monkey FVIII in whole blood (Cynomolgus monkey) (chain, as listed by the source): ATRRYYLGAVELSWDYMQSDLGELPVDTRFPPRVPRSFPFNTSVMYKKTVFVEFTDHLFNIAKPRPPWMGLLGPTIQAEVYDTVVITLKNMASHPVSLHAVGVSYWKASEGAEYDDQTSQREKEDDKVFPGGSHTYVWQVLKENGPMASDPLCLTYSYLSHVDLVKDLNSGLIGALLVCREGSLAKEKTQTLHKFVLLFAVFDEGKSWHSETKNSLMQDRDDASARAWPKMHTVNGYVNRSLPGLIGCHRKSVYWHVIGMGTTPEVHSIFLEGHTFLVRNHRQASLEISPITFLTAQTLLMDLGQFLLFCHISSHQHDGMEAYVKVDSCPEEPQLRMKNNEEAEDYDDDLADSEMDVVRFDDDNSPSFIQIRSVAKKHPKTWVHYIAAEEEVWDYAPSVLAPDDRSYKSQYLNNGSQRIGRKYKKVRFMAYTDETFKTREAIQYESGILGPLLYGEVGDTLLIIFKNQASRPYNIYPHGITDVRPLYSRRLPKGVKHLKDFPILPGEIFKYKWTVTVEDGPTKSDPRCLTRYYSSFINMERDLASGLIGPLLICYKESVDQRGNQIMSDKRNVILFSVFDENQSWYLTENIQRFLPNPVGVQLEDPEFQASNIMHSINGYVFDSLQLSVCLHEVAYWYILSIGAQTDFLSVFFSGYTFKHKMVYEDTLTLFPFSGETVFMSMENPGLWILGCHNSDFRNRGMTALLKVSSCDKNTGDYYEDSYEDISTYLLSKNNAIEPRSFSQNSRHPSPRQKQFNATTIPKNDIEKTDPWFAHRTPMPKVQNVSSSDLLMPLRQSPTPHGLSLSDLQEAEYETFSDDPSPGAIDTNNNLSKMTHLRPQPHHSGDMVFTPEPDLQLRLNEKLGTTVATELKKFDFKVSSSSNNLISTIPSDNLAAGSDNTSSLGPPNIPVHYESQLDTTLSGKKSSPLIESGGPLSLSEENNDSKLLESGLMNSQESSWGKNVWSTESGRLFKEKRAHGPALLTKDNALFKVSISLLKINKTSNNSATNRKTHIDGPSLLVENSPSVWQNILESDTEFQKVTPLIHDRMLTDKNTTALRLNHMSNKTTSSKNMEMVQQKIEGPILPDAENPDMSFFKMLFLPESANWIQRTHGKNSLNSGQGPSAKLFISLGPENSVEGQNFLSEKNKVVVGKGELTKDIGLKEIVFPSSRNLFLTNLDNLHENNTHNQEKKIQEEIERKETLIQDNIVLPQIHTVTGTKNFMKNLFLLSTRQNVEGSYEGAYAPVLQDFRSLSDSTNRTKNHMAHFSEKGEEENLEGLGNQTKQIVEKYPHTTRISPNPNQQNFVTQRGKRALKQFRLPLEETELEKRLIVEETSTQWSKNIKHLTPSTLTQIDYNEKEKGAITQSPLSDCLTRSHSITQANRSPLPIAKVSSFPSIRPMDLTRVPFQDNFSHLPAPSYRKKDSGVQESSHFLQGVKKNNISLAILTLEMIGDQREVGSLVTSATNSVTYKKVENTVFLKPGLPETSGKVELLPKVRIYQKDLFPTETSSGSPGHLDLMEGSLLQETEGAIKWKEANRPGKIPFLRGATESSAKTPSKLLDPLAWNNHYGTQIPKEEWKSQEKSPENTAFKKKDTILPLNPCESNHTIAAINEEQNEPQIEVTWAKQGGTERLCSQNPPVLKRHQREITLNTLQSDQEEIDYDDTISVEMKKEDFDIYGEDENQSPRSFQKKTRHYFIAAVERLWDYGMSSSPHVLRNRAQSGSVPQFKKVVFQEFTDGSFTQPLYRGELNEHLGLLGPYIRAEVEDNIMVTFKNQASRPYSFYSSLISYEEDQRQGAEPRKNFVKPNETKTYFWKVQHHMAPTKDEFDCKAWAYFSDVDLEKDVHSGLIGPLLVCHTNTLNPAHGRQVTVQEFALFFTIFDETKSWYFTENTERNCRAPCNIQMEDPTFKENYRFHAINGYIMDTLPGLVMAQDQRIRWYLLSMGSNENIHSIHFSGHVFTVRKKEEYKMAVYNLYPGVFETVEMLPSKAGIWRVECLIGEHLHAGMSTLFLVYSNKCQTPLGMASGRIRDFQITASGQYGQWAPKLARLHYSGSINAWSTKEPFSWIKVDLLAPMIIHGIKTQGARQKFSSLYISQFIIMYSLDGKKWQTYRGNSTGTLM

Sequence of Rhesus monkey glycophorin A on Rhesus monkey red blood cells (Rhesus monkey) (chain, as listed by the source, form in doubt): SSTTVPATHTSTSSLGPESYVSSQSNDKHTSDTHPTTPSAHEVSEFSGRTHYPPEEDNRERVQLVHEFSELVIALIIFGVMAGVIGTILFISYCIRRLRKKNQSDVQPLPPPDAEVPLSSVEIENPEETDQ

Substance	fluorescence intensity [1]	fluorescence intensity [2]	fluorescence intensity [3]	fluorescence intensity [4]	fluorescence intensity [5]	Hemochron aPTT clotting time, Cyno whole blood [6]
Hu igG isotype (antibody)	2	2	2	3	2	
anti-FVIII neutralizing monoclonal antibody BO2C11						180 s

— patent US20190359687A1
